Data on 9 molecules can be found in patent US20220401557A1 (Chugai, published 2022).

The chains are these.
B1: ANuPA20/GLS//GCH065 (bispecific antibody, human IgG1, kappa, N297A)
heavy 1: QDGNEEMGGITQTPYKVSISLSGRSDNHGGGSQVQLVESGGGLVQPGRSLRLSCAASGFTFSNAWMHWVRQAPGKGLEWVAQIKDKANGYNAYYAESVKGRFTISRDDSKNSIYLQMNSLKTEDTAVYYCRYVHYTTYAGFSYKFGVDAWGQGTTVTVSSASTKGPSVFPLAPSSKSTSGGTAALGCLVKDYFPEPVTVSWNSGALTSGVHTFPAVLQSSGLYSLSSVVTVPSSSLGTQTYICNVNHKPSNTKVDKKVEPKSCDKTHTCPPCPAPELRGGPKVFLFPPKPKDTLMISRTPEVTCVVVDVSHEDPEVKFNWYVDGVEVHNAKTKPREEQYASTYRVVSVLTVLHQDWLNGKEYKCKVSNKALPAPIEKTISKAKGQPREPQVYTLPPSRKEMTKNQVSLTCLVKGFYPSDIAVEWESNGQPENNYKTTPPYLDSDGSFFLYSKLTVDKSRWQQGNVFSCSVMHEALHNHYTQKSLSLSP
light 1: DIVMTQSPLSLPVTPGEPASISCRSSQSLVHSNRNTYLHWYQQKPGQAPRLLIYKVSNRFSGVPDRFSGSGSGTDFTLKISRVEAEDVGVYYCGQGTQVPYTFGQGTKLEIKRTVAAPSVFIFPPSDEQLKSGTASVVCLLNNFYPREAKVQWKVDNALQSGNSQESVTEQDSKDSTYSLSSTLTLSKADYEKHKVYACEVTHQGLSSPVTKSFNRGEC
heavy 2: QVQLVQSGAEVKKPGASVTVSCKASGYTFTDYEMHWIRQPPGEGLEWIGAIDGPTPDTAYSEKFKGRVTLTADKSTSTAYMELSSLTSEDTAVYYCTRFYSYTYWGQGTLVTVSSASTKGPSVFPLAPSSKSTSGGTAALGCLVKDYFPEPVTVSWNSGALTSGVHTFPAVLQSSGLYSLSSVVTVPSSSLGTQTYICNVNHKPSNTKVDKKVEPKSCDKTHTCPPCPAPELRGGPKVFLFPPKPKDTLMISRTPEVTCVVVDVSHEDPEVKFNWYVDGVEVHNAKTKPREEQYASTYRVVSVLTVLHQDWLNGKEYKCKVSNKALPAPIEKTISKAKGQPREPQVYTLPPSREEMTKNQVSLTCLVKGFYPSDIAVEWESNGQPENNYKTTPPYLDSDGSFFLYSKLTVDKSRWQQGNVFSCSVMHEALHNHYTQESLSLSP
light 2: B1 light 1 with S28P
B2: hCE115HA/GLSuPA27//GCH065 (bispecific antibody, human IgG1, kappa, N297A)
heavy 1: QVQLVESGGGVVQPGRSLRLSCAASGFTFSNAWMHWVRQAPGKGLEWVAQIKAKSNNYATYYAESVKGRFTISRDDSKNSLYLQMNSLKTEDTAVYYCRYVHYGAYYGVDAWGQGTTVTVSSASTKGPSVFPLAPSSKSTSGGTAALGCLVKDYFPEPVTVSWNSGALTSGVHTFPAVLQSSGLYSLSSVVTVPSSSLGTQTYICNVNHKPSNTKVDKKVEPKSCDKTHTCPPCPAPELRGGPKVFLFPPKPKDTLMISRTPEVTCVVVDVSHEDPEVKFNWYVDGVEVHNAKTKPREEQYASTYRVVSVLTVLHQDWLNGKEYKCKVSNKALPAPIEKTISKAKGQPREPQVYTLPPSRKEMTKNQVSLTCLVKGFYPSDIAVEWESNGQPENNYKTTPPYLDSDGSFFLYSKLTVDKSRWQQGNVFSCSVMHEALHNHYTQKSLSLSP
light 1: QDGNEEMGGITQTPYKVSISGTTVILTLSGRSDNHDIVMTQSPLSLPVTPGEPASISCRSSQSLVHSNRNTYLHWYQQKPGQAPRLLIYKVSNRFSGVPDRFSGSGSGTDFTLKISRVEAEDVGVYYCGQGTQVPYTFGQGTKLEIKRTVAAPSVFIFPPSDEQLKSGTASVVCLLNNFYPREAKVQWKVDNALQSGNSQESVTEQDSKDSTYSLSSTLTLSKADYEKHKVYACEVTHQGLSSPVTKSFNRGEC
heavy 2: B1 heavy 2
light 2: B1 light 1 with S28P
B3: rCE115/GLS//GCH065 (bispecific antibody, human IgG1, kappa, N297A)
heavy 1: EVQLVETGGSLVQPGKSLKLTCATSGFTFSNAWMHWVRQSPEKQLEWVAQIKAKSNNYATYYAESVKGRFTISRDDSKSNIYLQMNSLKEEDTAVYYCRYVHYGAYYGVDAWGQGTSVTVSSASTKGPSVFPLAPSSKSTSGGTAALGCLVKDYFPEPVTVSWNSGALTSGVHTFPAVLQSSGLYSLSSVVTVPSSSLGTQTYICNVNHKPSNTKVDKKVEPKSCDKTHTCPPCPAPELRGGPKVFLFPPKPKDTLMISRTPEVTCVVVDVSHEDPEVKFNWYVDGVEVHNAKTKPREEQYASTYRVVSVLTVLHQDWLNGKEYKCKVSNKALPAPIEKTISKAKGQPREPQVYTLPPSRKEMTKNQVSLTCLVKGFYPSDIAVEWESNGQPENNYKTTPPYLDSDGSFFLYSKLTVDKSRWQQGNVFSCSVMHEALHNHYTQKSLSLSP
light 1: B1 light 1
heavy 2: B1 heavy 2
light 2: B1 light 1 with S28P
B4: hCE115HA/GLSuPA20//GCH065 (bispecific antibody, human IgG1, kappa, N297A)
heavy 1: B2 heavy 1
light 1: QDGNEEMGGITQTPYKVSISLSGRSDNHGGGSDIVMTQSPLSLPVTPGEPASISCRSSQSLVHSNRNTYLHWYQQKPGQAPRLLIYKVSNRFSGVPDRFSGSGSGTDFTLKISRVEAEDVGVYYCGQGTQVPYTFGQGTKLEIKRTVAAPSVFIFPPSDEQLKSGTASVVCLLNNFYPREAKVQWKVDNALQSGNSQESVTEQDSKDSTYSLSSTLTLSKADYEKHKVYACEVTHQGLSSPVTKSFNRGEC
heavy 2: B1 heavy 2
light 2: B1 light 1 with S28P
B5: hCE115HAGS/GLS//GCH065 (bispecific antibody, human IgG1, kappa, N297A)
heavy 1: QDGNEGGGSGGGSQVQLVESGGGVVQPGRSLRLSCAASGFTFSNAWMHWVRQAPGKGLEWVAQIKAKSNNYATYYAESVKGRFTISRDDSKNSLYLQMNSLKTEDTAVYYCRYVHYGAYYGVDAWGQGTTVTVSSASTKGPSVFPLAPSSKSTSGGTAALGCLVKDYFPEPVTVSWNSGALTSGVHTFPAVLQSSGLYSLSSVVTVPSSSLGTQTYICNVNHKPSNTKVDKKVEPKSCDKTHTCPPCPAPELRGGPKVFLFPPKPKDTLMISRTPEVTCVVVDVSHEDPEVKFNWYVDGVEVHNAKTKPREEQYASTYRVVSVLTVLHQDWLNGKEYKCKVSNKALPAPIEKTISKAKGQPREPQVYTLPPSRKEMTKNQVSLTCLVKGFYPSDIAVEWESNGQPENNYKTTPPYLDSDGSFFLYSKLTVDKSRWQQGNVFSCSVMHEALHNHYTQKSLSLSP
light 1: B1 light 1
heavy 2: B1 heavy 2
light 2: B1 light 1 with S28P
B6: hCE115HA/GLSuPA04//GCH065 (bispecific antibody, human IgG1, kappa, N297A)
heavy 1: B2 heavy 1
light 1: QDGNEEMGGGSGGGSGGGSLSGRSDNHGGGSDIVMTQSPLSLPVTPGEPASISCRSSQSLVHSNRNTYLHWYQQKPGQAPRLLIYKVSNRFSGVPDRFSGSGSGTDFTLKISRVEAEDVGVYYCGQGTQVPYTFGQGTKLEIKRTVAAPSVFIFPPSDEQLKSGTASVVCLLNNFYPREAKVQWKVDNALQSGNSQESVTEQDSKDSTYSLSSTLTLSKADYEKHKVYACEVTHQGLSSPVTKSFNRGEC
heavy 2: B1 heavy 2
light 2: B1 light 1 with S28P
B7: hCE115HA/GLSGS//GCH065 (bispecific antibody, human IgG1, kappa, N297A)
heavy 1: B2 heavy 1
light 1: QDGNEGGGSGGGSGGGSDIVMTQSPLSLPVTPGEPASISCRSSQSLVHSNRNTYLHWYQQKPGQAPRLLIYKVSNRFSGVPDRFSGSGSGTDFTLKISRVEAEDVGVYYCGQGTQVPYTFGQGTKLEIKRTVAAPSVFIFPPSDEQLKSGTASVVCLLNNFYPREAKVQWKVDNALQSGNSQESVTEQDSKDSTYSLSSTLTLSKADYEKHKVYACEVTHQGLSSPVTKSFNRGEC
heavy 2: B1 heavy 2
light 2: B1 light 1 with S28P
B8: rCE115/GLSGS//GCH065 (bispecific antibody, human IgG1, kappa, N297A)
heavy 1: B3 heavy 1
light 1: B7 light 1
heavy 2: B1 heavy 2
light 2: B1 light 1 with S28P
B9: ANuPA27/GLS//GCH065 (bispecific antibody, human IgG1, kappa, N297A)
heavy 1: QDGNEEMGGITQTPYKVSISGTTVILTLSGRSDNHQVQLVESGGGLVQPGRSLRLSCAASGFTFSNAWMHWVRQAPGKGLEWVAQIKDKANGYNAYYAESVKGRFTISRDDSKNSIYLQMNSLKTEDTAVYYCRYVHYTTYAGFSYKFGVDAWGQGTTVTVSSASTKGPSVFPLAPSSKSTSGGTAALGCLVKDYFPEPVTVSWNSGALTSGVHTFPAVLQSSGLYSLSSVVTVPSSSLGTQTYICNVNHKPSNTKVDKKVEPKSCDKTHTCPPCPAPELRGGPKVFLFPPKPKDTLMISRTPEVTCVVVDVSHEDPEVKFNWYVDGVEVHNAKTKPREEQYASTYRVVSVLTVLHQDWLNGKEYKCKVSNKALPAPIEKTISKAKGQPREPQVYTLPPSRKEMTKNQVSLTCLVKGFYPSDIAVEWESNGQPENNYKTTPPYLDSDGSFFLYSKLTVDKSRWQQGNVFSCSVMHEALHNHYTQKSLSLSP
light 1: B1 light 1
heavy 2: B1 heavy 2
light 2: B1 light 1 with S28P

Numbering of substitutions follows the chain as printed.

Sequence of CD3 on NFAT-RE-luc2-Jurkat cells (P07766 23-207): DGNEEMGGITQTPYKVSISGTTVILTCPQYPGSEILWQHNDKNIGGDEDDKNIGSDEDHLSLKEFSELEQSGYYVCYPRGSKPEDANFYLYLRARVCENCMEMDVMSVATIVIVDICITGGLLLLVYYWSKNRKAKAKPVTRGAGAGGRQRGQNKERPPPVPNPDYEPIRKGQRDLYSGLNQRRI

The test concerns the target CD3 on NFAT-RE-luc2-Jurkat cells (human, UniProt P07766 23-207). Briefly: cell-based or functional assay.
As to B1, the “increase rate due to the protease treatment (luciferase, uPA-treated / untreated), antibody 0.1 nM” value was found to be 1.5 ratio and the “increase rate due to the protease treatment (luciferase, uPA-treated / untreated), antibody 1 nM” value was 2.2 ratio.
B2: the “increase rate due to the protease treatment (luciferase, uPA-treated / untreated), antibody 0.1 nM” value was 1 ratio and the “increase rate due to the protease treatment (luciferase, uPA-treated / untreated), antibody 1 nM” value came out at 2.3 ratio.
In the case of B3, the “increase rate due to the protease treatment (luciferase, uPA-treated / untreated), antibody 0.1 nM” value amounted to 0.7 ratio and the “increase rate due to the protease treatment (luciferase, uPA-treated / untreated), antibody 1 nM” value was 0.9 ratio.
For B4, the “increase rate due to the protease treatment (luciferase, uPA-treated / untreated), antibody 0.1 nM” value stood at 1.6 ratio and the “increase rate due to the protease treatment (luciferase, uPA-treated / untreated), antibody 1 nM” value is 3 ratio.
For B5, the “increase rate due to the protease treatment (luciferase, uPA-treated / untreated), antibody 0.1 nM” value came to 1 ratio and the “increase rate due to the protease treatment (luciferase, uPA-treated / untreated), antibody 1 nM” value worked out at 1 ratio.
For the molecule B6, the “increase rate due to the protease treatment (luciferase, uPA-treated / untreated), antibody 0.1 nM” value was 1.1 ratio and the “increase rate due to the protease treatment (luciferase, uPA-treated / untreated), antibody 1 nM” value was 8.2 ratio.
For B7, the “increase rate due to the protease treatment (luciferase, uPA-treated / untreated), antibody 0.1 nM” value worked out at 1 ratio and the “increase rate due to the protease treatment (luciferase, uPA-treated / untreated), antibody 1 nM” value was determined as 0.9 ratio.
For B8, the “increase rate due to the protease treatment (luciferase, uPA-treated / untreated), antibody 0.1 nM” value is 1 ratio and the “increase rate due to the protease treatment (luciferase, uPA-treated / untreated), antibody 1 nM” value was determined as 0.7 ratio.
Consider B9, for which the “increase rate due to the protease treatment (luciferase, uPA-treated / untreated), antibody 0.1 nM” value turned out to be 0.9 ratio and the “increase rate due to the protease treatment (luciferase, uPA-treated / untreated), antibody 1 nM” value was 0.9 ratio.
